From FireProtDB
Values joined by “and” are separate entries in the source; they are usually repeats but may differ in a detail not shown here. Equal values may be shown once.

Settings: Alicyclobacillus acidocaldarius subsp. acidocaldarius, pH 7, CD, Sodium phosphate 10 mM, reversible: yes, whole UniProt chain shown

B1: Thioredoxin wild type, P80579 (protein)
chain: ATMTLTDANFQQAIQGDKPVLVDFWAAWCGPCRMMAPVLEEFAEAHADKVTVAKLNVDENPETTSQFGIMSIPTLILFKGGRPVKQLIGYQPKEQLEAQLADVLQ
denaturant midpoint (higher = more stable) (GdHCl): 2.9 M
Tm (Thermal): 84.5 °C and 88.2 °C
denaturant midpoint (higher = more stable) (Urea): 6.7 M
